Key:
[1] = target: T1, Upstream Binding Transcription Factor (UBF), recombinant, P17480; test: SDS-PAGE without sample heating, with densitometry; details: remark: other sources report otherwise
T1 chain: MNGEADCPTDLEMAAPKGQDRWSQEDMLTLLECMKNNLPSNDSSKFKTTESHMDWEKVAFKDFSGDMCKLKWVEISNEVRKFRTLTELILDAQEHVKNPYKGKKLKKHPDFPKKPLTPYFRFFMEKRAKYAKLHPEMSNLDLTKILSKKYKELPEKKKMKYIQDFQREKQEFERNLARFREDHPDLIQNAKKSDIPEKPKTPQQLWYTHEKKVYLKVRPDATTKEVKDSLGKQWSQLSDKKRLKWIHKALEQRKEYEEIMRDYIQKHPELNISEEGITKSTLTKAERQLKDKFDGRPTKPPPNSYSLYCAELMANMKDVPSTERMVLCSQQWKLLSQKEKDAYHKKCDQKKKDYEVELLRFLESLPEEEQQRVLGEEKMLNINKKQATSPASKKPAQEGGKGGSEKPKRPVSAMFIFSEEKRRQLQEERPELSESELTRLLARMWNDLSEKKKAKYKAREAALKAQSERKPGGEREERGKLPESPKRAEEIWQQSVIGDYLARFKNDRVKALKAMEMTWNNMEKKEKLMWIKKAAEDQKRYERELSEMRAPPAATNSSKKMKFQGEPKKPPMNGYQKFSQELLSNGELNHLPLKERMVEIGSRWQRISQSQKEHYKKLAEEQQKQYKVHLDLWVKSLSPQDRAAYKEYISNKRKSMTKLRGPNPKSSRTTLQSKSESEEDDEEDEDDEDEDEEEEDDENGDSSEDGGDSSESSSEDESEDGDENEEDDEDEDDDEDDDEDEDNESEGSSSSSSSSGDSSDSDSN

[2] = target: T1, Upstream Binding Transcription Factor …; test: mass photometry; details: remark: other sources report otherwise

B1: Upstream Binding Transcription Factor (UBF), recombinant, P17480 1-764 (natural protein)
chain: MNGEADCPTDLEMAAPKGQDRWSQEDMLTLLECMKNNLPSNDSSKFKTTESHMDWEKVAFKDFSGDMCKLKWVEISNEVRKFRTLTELILDAQEHVKNPYKGKKLKKHPDFPKKPLTPYFRFFMEKRAKYAKLHPEMSNLDLTKILSKKYKELPEKKKMKYIQDFQREKQEFERNLARFREDHPDLIQNAKKSDIPEKPKTPQQLWYTHEKKVYLKVRPDATTKEVKDSLGKQWSQLSDKKRLKWIHKALEQRKEYEEIMRDYIQKHPELNISEEGITKSTLTKAERQLKDKFDGRPTKPPPNSYSLYCAELMANMKDVPSTERMVLCSQQWKLLSQKEKDAYHKKCDQKKKDYEVELLRFLESLPEEEQQRVLGEEKMLNINKKQATSPASKKPAQEGGKGGSEKPKRPVSAMFIFSEEKRRQLQEERPELSESELTRLLARMWNDLSEKKKAKYKAREAALKAQSERKPGGEREERGKLPESPKRAEEIWQQSVIGDYLARFKNDRVKALKAMEMTWNNMEKKEKLMWIKKAAEDQKRYERELSEMRAPPAATNSSKKMKFQGEPKKPPMNGYQKFSQELLSNGELNHLPLKERMVEIGSRWQRISQSQKEHYKKLAEEQQKQYKVHLDLWVKSLSPQDRAAYKEYISNKRKSMTKLRGPNPKSSRTTLQSKSESEEDDEEDEDDEDEDEEEEDDENGDSSEDGGDSSESSSEDESEDGDENEEDDEDEDDDEDDDEDEDNESEGSSSSSSSSGDSSDSDSN
With B1 the stoichiometry N [1] was 4 and the stoichiometry N [2] was 4.

From article doi:10.1101/2022.11.05.515292
